Source: the supplement of paper PMC9112550, “Optimization of the antimicrobial peptide Bac7 by deep mutational scanning” (BMC Biology, 2022)

Test system: Escherichia coli TOP10
Assay: shrunken log2 fold change of peptide-encoding DNA abundance (4.5 h post-induction vs induction); higher = less antimicrobial activity (less host growth inhibition)
Settings: time post-induction: 4.5 h; library: site-saturation at positions 5, 18, 19, 20
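Further: peptides expressed intracellularly from a pBAD plasmid library in pooled LB shake-flask culture, induced with 0.3% L-arabinose, DNA abundance read by NGS, three biological replicates, DESeq2 with apeglm shrinkage.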

Row | Sequence | shrunken log2 fold change
1 | RRIRRRPPRLPRPRPRPNSNPRP | -0.302
2 | RRIRRRPPRLPRPRPRPNTTPRP | -0.283
3 | RRIRRRPPRLPRPRPRPNVFPRP | 0.426
4 | RRIRRRPPRLPRPRPRPNVLPRP | -0.185
5 | RRIRRRPPRLPRPRPRPNVNPRP | -0.0627
6 | RRIRRRPPRLPRPRPRPNWHPRP | 0.151
7 | RRIRRRPPRLPRPRPRPNYEPRP | 0.0979
8 | RRIRRRPPRLPRPRPRPNYYPRP | -0.333
9 | RRIRRRPPRLPRPRPRPPASPRP | 0.615
10 | RRIRRRPPRLPRPRPRPPCNPRP | 0.36
11 | RRIRRRPPRLPRPRPRPPCQPRP | 0.767
12 | RRIRRRPPRLPRPRPRPPCRPRP | 1.09
13 | RRIRRRPPRLPRPRPRPPFAPRP | 0.739
14 | RRIRRRPPRLPRPRPRPPGGPRP | 0.348
15 | RRIRRRPPRLPRPRPRPPGWPRP | -0.0607
16 | RRIRRRPPRLPRPRPRPPHAPRP | 1.52
17 | RRIRRRPPRLPRPRPRPPHDPRP | 1.49
18 | RRIRRRPPRLPRPRPRPPHKPRP | 1.77
19 | RRIRRRPPRLPRPRPRPPILPRP | -0.1
20 | RRIRRRPPRLPRPRPRPPIPPRP | 0.271
21 | RRIRRRPPRLPRPRPRPPMLPRP | 0.317
22 | RRIRRRPPRLPRPRPRPPMQPRP | 0.385
23 | RRIRRRPPRLPRPRPRPPNNPRP | 0.177
24 | RRIRRRPPRLPRPRPRPPPIPRP | 0.978
25 | RRIRRRPPRLPRPRPRPPPLPRP | 0.963

Row | Sequence | shrunken log2 fold change
26 | RRIRRRPPRLPRPRPRPPQAPRP | 1.19
27 | RRIRRRPPRLPRPRPRPPQMPRP | 1.24
28 | RRIRRRPPRLPRPRPRPPQSPRP | 0.846
29 | RRIRRRPPRLPRPRPRPPRAPRP | 1.17
30 | RRIRRRPPRLPRPRPRPPRIPRP | 1.08
31 | RRIRRRPPRLPRPRPRPPSSPRP | 0.303
32 | RRIRRRPPRLPRPRPRPPSYPRP | 0.26
33 | RRIRRRPPRLPRPRPRPPTPPRP | 0.769
34 | RRIRRRPPRLPRPRPRPPYQPRP | 0.245
35 | RRIRRRPPRLPRPRPRPQAKPRP | 0.418
36 | RRIRRRPPRLPRPRPRPQAWPRP | 0.0536
37 | RRIRRRPPRLPRPRPRPQCDPRP | 0.333
38 | RRIRRRPPRLPRPRPRPQDFPRP | -0.078
39 | RRIRRRPPRLPRPRPRPQDNPRP | -0.668
40 | RRIRRRPPRLPRPRPRPQEVPRP | -0.00192
41 | RRIRRRPPRLPRPRPRPQGAPRP | -0.0933
42 | RRIRRRPPRLPRPRPRPQHLPRP | -0.289
43 | RRIRRRPPRLPRPRPRPQHNPRP | 0.0256
44 | RRIRRRPPRLPRPRPRPQHPPRP | 0.526
45 | RRIRRRPPRLPRPRPRPQHVPRP | -0.0783
46 | RRIRRRPPRLPRPRPRPQHYPRP | -0.128
47 | RRIRRRPPRLPRPRPRPQKLPRP | 0.102
48 | RRIRRRPPRLPRPRPRPQLVPRP | 0.0448
49 | RRIRRRPPRLPRPRPRPQMIPRP | -0.0521
50 | RRIRRRPPRLPRPRPRPQNHPRP | -0.191

Row | Sequence | shrunken log2 fold change
51 | RRIRRRPPRLPRPRPRPQNSPRP | -0.266
52 | RRIRRRPPRLPRPRPRPQPQPRP | 0.354
53 | RRIRRRPPRLPRPRPRPQQKPRP | 0.011
54 | RRIRRRPPRLPRPRPRPQQNPRP | 0.0713
55 | RRIRRRPPRLPRPRPRPQRMPRP | 0.13
56 | RRIRRRPPRLPRPRPRPQRWPRP | -0.0703
57 | RRIRRRPPRLPRPRPRPQSCPRP | 0.107
58 | RRIRRRPPRLPRPRPRPQTVPRP | -0.0201
59 | RRIRRRPPRLPRPRPRPQVAPRP | 0.157
60 | RRIRRRPPRLPRPRPRPQVHPRP | 0.148
61 | RRIRRRPPRLPRPRPRPQVMPRP | 0.0874
62 | RRIRRRPPRLPRPRPRPQWPPRP | 0.00418
63 | RRIRRRPPRLPRPRPRPQWVPRP | 0.279
64 | RRIRRRPPRLPRPRPRPRAEPRP | 0.572
65 | RRIRRRPPRLPRPRPRPRARPRP | 0.618
66 | RRIRRRPPRLPRPRPRPRDKPRP | 0.126
67 | RRIRRRPPRLPRPRPRPRFGPRP | 0.438
68 | RRIRRRPPRLPRPRPRPRGKPRP | 0.694
69 | RRIRRRPPRLPRPRPRPRGYPRP | 0.398
70 | RRIRRRPPRLPRPRPRPRHHPRP | 0.0826
71 | RRIRRRPPRLPRPRPRPRHKPRP | 1.89
72 | RRIRRRPPRLPRPRPRPRIQPRP | 0.241
73 | RRIRRRPPRLPRPRPRPRKHPRP | 0.535
74 | RRIRRRPPRLPRPRPRPRKQPRP | -0.0686
75 | RRIRRRPPRLPRPRPRPRKTPRP | 0.615
